Reference: patent publication US6699662, “Inhibitors of staphylococcus SarA protein function involved in the expression of staphylococcal virulence factors and the use thereof in treating staphylococcal infections” (University of Arkansas)

Target: T1, SarA (staphylococcal accessory regulator A), strain DB (Staphylococcus aureus, UniProt Q2G2U9 SEQ:1-124)
T1 sequence: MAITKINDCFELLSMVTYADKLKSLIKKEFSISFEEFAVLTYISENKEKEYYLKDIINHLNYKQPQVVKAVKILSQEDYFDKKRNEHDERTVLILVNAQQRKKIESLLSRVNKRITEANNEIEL
Experiment: footprint
Settings: tags: none (untagged full-length, expressed from pET9a in E. coli BL21(DE3)pLys); chain copies: 2 (dimer, stated); label: 32P

B1: agr P2-P3 inter-promoter region (cloned in pBKH50; DNase I footprint fragment about 240 bp with vector ends) (dsDNA)
DNA 1: CATTAAAACATGCTAAAAGCATTTATTTTCCAATTTTTCTTAACTAGTCGTTTTTTATTCTTAACTGTAAATTTTTTTATGTTAAAATATTAAATACAAATTACATTTAACAGTTAAGTATTTATTTCCTACAGTTAGGCAATATAATGATAAAAGATTGTACTAAATCGTATAATGACAGGATCCCCGG
DNA 2: CCGGGGATCCTGTCATTATACGATTTAGTACAATCTTTTATCATTATATTGCCTAACTGTAGGAAATAAATACTTAACTGTTAAATGTAATTTGTATTTAATATTTTAACATAAAAAAATTTACAGTTAAGAATAAAAAACGACTAGTTAAGAAAAATTGGAAAATAAATGCTTTTAGCATGTTTTAAGT
Q: Which “apparent K (half saturation)” value does the source give for B1 here?
A: The value was 4.24 pM.
